Reference: US12576050B2, “Dosage regime” (priority 2018, dated 2026)

Assay: In vitro mucolysis of patient sputum
Conditions: very thick/purulent sputum, patient already on Pulmozyme
Protocol: Patient had very thick/purulent sputum. The sputum from this patient was responsive to 5% cysteamine DPI formulation. Addition of DNAse I (Pulmozyme) at physiological concentration is having no effect, but this patient is already on Pulmozyme and recently had the dose tripled. The patient's sputum responded to in vitro tests with cysteamine (see FIG. 7). The sputum response was conducted in accordance with the general method outlined in EBioMedicine 2 (2015) 1507-1512 “Cysteamine as a Future Intervention in Cystic Fibrosis Against Current and Emerging Pathogens: A Patient-based ex vivo Study Confirming its Antimicrobial and Mucoactive Potential in Sputum”, Graham Devereux et al.

B1: DNAse I (Pulmozyme): DNAse I (Pulmozyme) added at physiological concentration to sputum (protein, UniProt P24855 23-282, looked up)
Deoxyribonuclease-1: LKIAAFNIQTFGETKMSNATLVSYIVQILSRYDIALVQEVRDSHLTAVGKLLDNLNQDAPDTYHYVVSEPLGRNSYKERYLFVYRPDQVSAVDSYYYDDGCEPCGNDTFNREPAIVRFFSRFTEVREFAIVPLHAAPGDAVAEIDALYDVYLDVQEKWGLEDVMLMGDFNAGCSYVRPSQWSSIRLWTSPTFQWLIPDSADTTATPTHCAYDRIVVAGMLLRGAVVPDSALPFNFQAAYGLSDQLAQAISDHYPVEVMLK
- Response of patient sputum (mucolysis): no effect
